Test results as given in patent publication US20120237978A1.

Target: β2AR part of the β2AR-Gs peptide fusion construct (receptor truncated at position 365) (human) (UniProt P07550)
Test: cell-based or functional assay

last 21 amino acids of the Gαs subunit (amino acids 374-394, except for C379A), as fused in the β2AR-Gs peptide fusion construct
agonist affinity ([3H]-DHA competition binding with isoproterenol, Sf9 membranes): 27 fold
effect on agonist binding affinity compared with the β2AR-Gs complex: 3.5 fold
fraction of β2AR in the Ki high state ([3H]-DHA / isoproterenol competition, Sf9 membranes): 0.68
